According to patent US7407939B2, “Protein kinase inhibitors comprising ATP mimetics conjugated to peptides or peptidomimetics” (CureGenics Ltd., priority 2001, dated 2008):
Where two headings read alike, the source gives them in different places. *1 amine or outer side, *2 acyl side, *3 side chain or, on linkers, in order; H or OH if unused. Where a SMILES comes first, the peptide text is derived from it. Where no end group is shown, it is not given here. Side-chain parts run from the residue outwards. [ ]: non-standard residue; d: D form. The star is where a group is joined. ξ: configuration not given here. X1 = 5‑aminoethylsulfonamide isoquinoline, O=S(=O)(NCCN*)c1cccc2cnccc12; Isoquinoline5sulfonyl = O=S(=O)(c1cccc2cnccc12)*; Ethylenediamine = C(CN[*:2])N[*:1]; hLeu = CC(C)CC[C@H](N)C(=O)O; Nle = CCCC[C@H](N)C(=O)O; Orn = NCCC[C@H](N)C(=O)O; Dab = NCC[C@H](N)C(=O)O; Nva = CCC[C@H](N)C(=O)O; ξE = NC(CCC(=O)O)C(=O)O; Abu = CC[C@H](N)C(=O)O; Dap = NC[C@H](N)C(=O)O; GlyNH2 = aminoglycine; βAla = NCCC(=O)O

Target: T1, PKB (Homo sapiens, UniProt P31749)
T1 construct: His; HA; made in house
Assay: PKB in vitro kinase activity assay (soluble His-HA-PKB / SPA bead screening)
Assay type: biochemical
Design: % Inhibition PKB I / % Inhibition PKB II: concentration or dose not given beside the values
Conditions: for PKB-kinase (spa) Assay 1, % inhibition of kinase activity / PKB-kinase (spa) Assay 2, % inhibition of kinase activity: 1 μM compound concentration

[1] = plate screening, peptide moiety alone
[2] = chimeric PTR compounds (peptide conjugated to isoquinoline small molecule), read-out: PKB IC50
[3] = Table 3, linear 7-mer peptides, read-out: Activity PKB

T1 sequence (P31749 whole entry, species assumed): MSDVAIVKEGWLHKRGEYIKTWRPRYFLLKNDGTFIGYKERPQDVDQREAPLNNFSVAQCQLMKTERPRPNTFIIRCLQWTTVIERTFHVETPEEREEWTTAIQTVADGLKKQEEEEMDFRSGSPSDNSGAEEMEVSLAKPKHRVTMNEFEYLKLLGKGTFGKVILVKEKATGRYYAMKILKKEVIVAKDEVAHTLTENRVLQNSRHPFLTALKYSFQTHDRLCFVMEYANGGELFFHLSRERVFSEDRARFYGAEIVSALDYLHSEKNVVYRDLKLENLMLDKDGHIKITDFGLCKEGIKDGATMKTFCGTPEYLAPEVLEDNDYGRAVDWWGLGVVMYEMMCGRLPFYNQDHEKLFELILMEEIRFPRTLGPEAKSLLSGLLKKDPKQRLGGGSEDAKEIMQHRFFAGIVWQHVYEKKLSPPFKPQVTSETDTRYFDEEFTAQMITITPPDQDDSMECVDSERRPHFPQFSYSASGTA

Compound	PKB-kinase (spa) Assay 1, % inhibition of kinase activity [%]	PKB-kinase (spa) Assay 2, % inhibition of kinase activity [%]	also measured
60006-7B (RPR[Nva][GlyNH2][Abu][hLeu]) [Compound 60006-7B]			% Inhibition PKB I [1]: 53%; % Inhibition PKB II (plate screening, peptide moiety alone, PKB II): 47%
60020-30: Arg-Pro-Arg-Nle-Glu(5-aminoethylsulfonamide isoquinoline)-Ala-Hol (RPR[Nle]E(X1)A[hLeu])	14	38	
CCC[C@H](NC(=O)[C@H](CCCNC(=N)N)NC(=O)[C@@H]1CCCN1C(=O)[C@@H](N)CCCNC(=N)N)C(=O)N[C@@H](CCC(=O)NCCNS(=O)(=O)c1cccc2cnccc12)C(=O)N[C@@H](C)C(=O)N[C@@H](CCC(C)C)C(N)=O [compound 6150] (H-RPR[Nva]E([Ethylenediamine-Isoquinoline5sulfonyl])A[hLeu]-NH2; N-terminus assumed)			IC50 [2]: 25 µM
60020-54: Arg-Pro-Arg-Abu-Glu(Gly-5-aminoethylsulfonamide isoquinoline)-Ala-Hol (RPR[Abu]E([Gly-X1])A[hLeu])	34	45	
C[C@@H](O)[C@H](NC(=O)[C@H](CCCNC(=N)N)NC(=O)[C@@H]1CCCN1C(=O)[C@@H](N)CCCNC(=N)N)C(=O)N[C@@H](CO)C(=O)N[C@@H](CCC(=O)NCCNS(=O)(=O)c1cccc2cnccc12)C(=O)N[C@@H](Cc1ccccc1)C(N)=O [compound 6014] (H-RPRTSE([Ethylenediamine-Isoquinoline5sulfonyl])F-NH2)			IC50 [2]: 25 µM
60020-80: Arg-Pro-Arg-Orn-Glu(bAla-5-aminoethylsulfonamide isoquinoline)-Nva-Hol (RPR[Orn]E([βAla-X1])[Nva][hLeu])	13	35	
60020-89: Arg-Pro-Arg-Nle-Glu(bAla-5-aminoethylsulfonamide isoquinoline)-Dab-Phe (RPR[Nle]E([βAla-X1])[Dab]F)	8	48	
60002-50 (RPRTSA[hLeu]) [Compound 60002-50]			% Inhibition PKB I [1]: 62%
60020-18: Arg-Pro-Arg-Abu-Glu(5-aminoethylsulfonamide isoquinoline)-Dab-Hol (RPR[Abu]E(X1)[Dab][hLeu])	18	28	
C[C@@H](O)[C@H](NC(=O)[C@H](CCCNC(=N)N)NC(=O)[C@@H]1CCCN1C(=O)[C@@H](N)CCCNC(=N)N)C(=O)N[C@@H](CO)C(=O)NC(CCC(=O)NCCNS(=O)(=O)c1cccc2cnccc12)C(=O)N[C@@H](Cc1ccccc1)C(N)=O (stereo partly drawn) [PTR 6014] (H-RPRTS[ξE]([Ethylenediamine-Isoquinoline5sulfonyl])F-NH2)			IC50 (Table 2, chimeric compounds, read-out: Activity PKB): 25 µM
N=C(N)NCCC[C@H](NC(=O)[C@@H]1CCCN1C(=O)[C@@H](N)CCCNC(=N)N)C(=O)N[C@@H](CCCN)C(=O)N[C@@H](CO)C(=O)N[C@@H](CO)C(=O)N[C@@H](Cc1ccccc1)C(N)=O [AR 60003-52, Arg-Pro-Arg-Orn-Ser-Ser-Phe] (H-RPR[Orn]SSF-NH2; N-terminus and C-terminus assumed)			IC50 [3]: 2.5 µM
60020-28: Arg-Pro-Arg-Nle-Glu(5-aminoethylsulfonamide isoquinoline)-Orn-Hol (RPR[Nle]E(X1)[Orn][hLeu])	27	31	
60020-62: Arg-Pro-Arg-Nle-Glu(Gly-5-aminoethylsulfonamide isoquinoline)-Ala-Hol (RPR[Nle]E([Gly-X1])A[hLeu])	29	38	
60020-72: Arg-Pro-Arg-Dap-Glu(bAla-5-aminoethylsulfonamide isoquinoline)-Nva-Hol (RPR[Dap]E([βAla-X1])[Nva][hLeu])	31	52	
60020-40: Arg-Pro-Arg-Dap-Glu(Gly-5-aminoethylsulfonamide isoquinoline)-Nva-Hol (RPR[Dap]E([Gly-X1])[Nva][hLeu])	36	22	
60020-14: Arg-Pro-Arg-Orn-Glu(5-aminoethylsulfonamide isoquinoline)-Ala-Hol (RPR[Orn]E(X1)A[hLeu])	26	31	
60020-82: Arg-Pro-Arg-Abu-Glu(bAla-5-aminoethylsulfonamide isoquinoline)-Dab-Hol (RPR[Abu]E([βAla-X1])[Dab][hLeu])	−9	56	
60020-39: Arg-Pro-Arg-Dap-Glu(Gly-5-aminoethylsulfonamide isoquinoline)-Nva-Phe (RPR[Dap]E([Gly-X1])[Nva]F)	17	16	

Compound	PKB-kinase (spa) Assay 1, % inhibition of kinase activity [%]	PKB-kinase (spa) Assay 2, % inhibition of kinase activity [%]	also measured
60020-94: Arg-Pro-Arg-Nle-Glu(bAla-5-aminoethylsulfonamide isoquinoline)-Ala-Hol (RPR[Nle]E([βAla-X1])A[hLeu])	9	31	
60020-8: Arg-Pro-Arg-Dap-Glu(5-aminoethylsulfonamide isoquinoline)-Nva-Hol (RPR[Dap]E(X1)[Nva][hLeu])	18	0	
60020-4: Arg-Pro-Arg-Dap-Glu(5-aminoethylsulfonamide isoquinoline)-Orn-Hol (RPR[Dap]E(X1)[Orn][hLeu])	34	53	
60020-55: Arg-Pro-Arg-Abu-Glu(Gly-5-aminoethylsulfonamide isoquinoline)-Nva-Phe (RPR[Abu]E([Gly-X1])[Nva]F)	20	40	
60020-12: Arg-Pro-Arg-Orn-Glu(5-aminoethylsulfonamide isoquinoline)-Orn-Hol (RPR[Orn]E(X1)[Orn][hLeu])	23	3	
RPRMSSF-NH2 (C-terminus assumed) [AR 60003-50, Arg-Pro-Arg-Met-Ser-Ser-Phe]			IC50 [3]: 2.5 µM
60020-45: Arg-Pro-Arg-Orn-Glu(Gly-5-aminoethylsulfonamide isoquinoline)-Ala-Phe (RPR[Orn]E([Gly-X1])AF)	29	53	
60020-93: Arg-Pro-Arg-Nle-Glu(bAla-5-aminoethylsulfonamide isoquinoline)-Ala-Phe (RPR[Nle]E([βAla-X1])AF)	−12	58	
60020-92: Arg-Pro-Arg-Nle-Glu(bAla-5-aminoethylsulfonamide isoquinoline)-Orn-Hol (RPR[Nle]E([βAla-X1])[Orn][hLeu])	40	59	
60020-48: Arg-Pro-Arg-Orn-Glu(Gly-5-aminoethylsulfonamide isoquinoline)-Nva-Hol (RPR[Orn]E([Gly-X1])[Nva][hLeu])	10	22	
60020-66: Arg-Pro-Arg-Dap-Glu(bAla-5-aminoethylsulfonamide isoquinoline)-Dab-Hol (RPR[Dap]E([βAla-X1])[Dab][hLeu])	52	63	
RPRRSSF-NH2 (C-terminus assumed) [AR 60003-53, Arg-Pro-Arg-Arg-Ser-Ser-Phe]			IC50 [3]: 3 µM
60020-24: Arg-Pro-Arg-Abu-Glu(5-aminoethylsulfonamide isoquinoline)-Nva-Hol (RPR[Abu]E(X1)[Nva][hLeu])	−17	−12	
60020-29: Arg-Pro-Arg-Nle-Glu(5-aminoethylsulfonamide isoquinoline)-Ala-Phe (RPR[Nle]E(X1)AF)	19	39	
60020-32: Arg-Pro-Arg-Nle-Glu(5-aminoethylsulfonamide isoquinoline)-Nva-Hol (RPR[Nle]E(X1)[Nva][hLeu])	12	32	
60020-64: Arg-Pro-Arg-Nle-Glu(Gly-5-aminoethylsulfonamide isoquinoline)-Nva-Hol (RPR[Nle]E([Gly-X1])[Nva][hLeu])	25	26	
60020-16: Arg-Pro-Arg-Orn-Glu(5-aminoethylsulfonamide isoquinoline)-Nva-Hol (RPR[Orn]E(X1)[Nva][hLeu])	5	37	
